The target in the experiment is human thrombopoietin receptor (hTPOR, genetic name MPL), on cells (human) (UniProt P40238). The experiment is described as follows: cell-based or functional assay.

“recombinant human thrombopoietin (rhTPO) (from UniProt P40225 22-353) (ligand)” had an EC50 of cell proliferation of BaF3/MPL cells of 1.3 ng/mL.
